Where two headings read alike, the source gives them in different places.
Key:
[1] = biological target: T1, recombinant SARS-CoV-2 spike S1 RBD (R319-F541), C-terminal 6-His (SARS-CoV-2, UniProt P0DTC2 319-541); assay: sandwich dipstick, detector Ab5-AuNP
[2] = biological target: T2, UK variant RBD (R319-F541 with N501Y), C-terminal 6-His (SARS-CoV-2, UniProt P0DTC2 319-541); assay: sandwich dipstick, detector Ab5-AuNP
[3] = biological target: T3, SA variant RBD (R319-F541 with K417N, E484K, N501Y), C-terminal 6-His (SARS-CoV-2, UniProt P0DTC2 319-541); assay: sandwich dipstick, detector Ab5-AuNP
[4] = biological target: T4, BR P.1 variant RBD (R319-F541 with K417T, E484K, N501Y), C-terminal 6-His (SARS-CoV-2, UniProt P0DTC2 319-541); assay: sandwich dipstick, detector Ab5-AuNP
[5] = biological target: T3, SA variant RBD (R319-F541 with K417N, …); assay: lateral flow NC50, RBD-AuNP vs immobilised ACE2
[6] = biological target: T4, BR P.1 variant RBD (R319-F541 with …); assay: lateral flow NC50, RBD-AuNP vs immobilised ACE2
[7] = biological target: T1, recombinant SARS-CoV-2 spike S1 RBD …; assay: sandwich dipstick, capture Ab7, detector Ab4-AuNP
[8] = biological target: T2, UK variant RBD (R319-F541 with N501Y), …; assay: sandwich dipstick, capture Ab7, detector Ab4-AuNP
[9] = biological target: T3, SA variant RBD (R319-F541 with K417N, …); assay: sandwich dipstick, capture Ab7, detector Ab4-AuNP
[10] = biological target: T4, BR P.1 variant RBD (R319-F541 with …); assay: sandwich dipstick, capture Ab7, detector Ab4-AuNP
[11] = biological target: T1, recombinant SARS-CoV-2 spike S1 RBD …; assay: lateral flow NC50, RBD-AuNP vs immobilised ACE2
[12] = biological target: T2, UK variant RBD (R319-F541 with N501Y), …; assay: lateral flow NC50, RBD-AuNP vs immobilised ACE2
[13] = biological target: T1, recombinant SARS-CoV-2 spike S1 RBD …; assay: lateral flow NC50, RBD-AuNP vs immobilised ACE2; remark: listed apart in the source
[14] = biological target: T2, UK variant RBD (R319-F541 with N501Y), …; assay: lateral flow NC50, RBD-AuNP vs immobilised ACE2; remark: listed apart in the source
[15] = biological target: K417E RBD (R319-F541 with K417E) (SARS-CoV-2, UniProt P0DTC2 319-541); assay: lateral flow NC50, RBD-AuNP vs immobilised ACE2
[16] = biological target: T478K RBD (R319-F541 with T478K) (SARS-CoV-2, UniProt P0DTC2 319-541); assay: lateral flow NC50, RBD-AuNP vs immobilised ACE2
[17] = biological target: T1, recombinant SARS-CoV-2 spike S1 RBD …; assay: flow cytometry, blocking of binding to hACE-2 cells
[18] = biological target: T1, recombinant SARS-CoV-2 spike S1 RBD …; assay: as above; remark: listed apart in the source
[19] = biological target: T4, BR P.1 variant RBD (R319-F541 with …); assay: as above
[20] = biological target: T5, IN v2 variant RBD (R319-F541 with L452R, T478K) (SARS-CoV-2, UniProt P0DTC2 319-541); assay: as above
[21] = biological target: rSARS2 RBD aa319-541, N439K, C-His (SARS-CoV-2, UniProt P0DTC2 319-541); assay: as above
[22] = biological target: rSARS2-B.1.1.7 S aa16-1211 2x aa mut., C-His (SARS-CoV-2, UniProt P0DTC2 16-1211); assay: as above
[23] = biological target: rSARS2-B.1.1.7 S aa16-1211 4x aa mut., C-His (SARS-CoV-2, UniProt P0DTC2 16-1211); assay: as above
[24] = biological target: rSARS2-B.1.617.2 S aa16-1211 10+4x aa mut., C-His (SARS-CoV-2, UniProt P0DTC2 16-1211); assay: as above
[25] = biological target: BR P.2 variant RBD (R319-F541 with E484K) (SARS-CoV-2, UniProt P0DTC2 319-541); assay: dipstick, adsorbed RBD spots, Ab 10 µg/mL, GAM-AuNP
[26] = biological target: L452R RBD (R319-F541 with L452R) (SARS-CoV-2, UniProt P0DTC2 319-541); assay: as above
[27] = biological target: IN v1 variant RBD (R319-F541 with L452R, E484Q) (SARS-CoV-2, UniProt P0DTC2 319-541); assay: as above
[28] = biological target: T5, IN v2 variant RBD (R319-F541 with …); assay: as above

B1: 1035240 (antibody, V domains shown)
VH: QVQLQQSGAELARPGASVKMSCKASGYTFTTYTMHWVKQRPGQGLEWIGYINPSSGYTNYNQKFKDKATLTADTSSSTAYMQLSSLTSEDSAVYYCARRNPLYAMDYWGQGTSVTVSS
VL: DIKMTQSPSSMYASLGERVTITCKASQDINSYLNWFQQKPGKSPKTLIYRANRLVDGVPSRFSGSGSGQDYSLTISSLEYEDMGIYYCLQYDEFPYTFGGGTKLEIK
detection sensitivity [1]: 0.001 µg/mL
detection sensitivity [2]: 0.001 µg/mL
detection sensitivity [3]: 0.001 µg/mL
detection sensitivity [4]: 0.001 µg/mL
IC50 [5]: > 45 µg/mL
IC50 [6]: > 45 µg/mL
detection sensitivity [7]: 0.01 µg/mL
detection sensitivity [8]: 0.01 µg/mL
detection sensitivity [9]: 0.1 µg/mL
detection sensitivity [10]: 0.1 µg/mL
IC50 [11]: 0.34 µg/mL
IC50 [12]: 0.86 µg/mL
IC50 [13]: 0.34 µg/mL
IC50 [14]: 0.86 µg/mL
IC50 [15]: 0.33 µg/mL
IC50 [16]: 0.61 µg/mL
percent blocking [17]: 99.1%
percent blocking [18]: 99.1%
percent blocking [19]: 0%
percent blocking [20]: 0.7%
percent blocking [21]: 49%
percent blocking [22]: 91.2%
percent blocking [23]: 78.6%
percent blocking [24]: 0%
binding result [25]: no binding (tested: 10 µg/mL)
binding result [26]: no binding (tested: 10 µg/mL)
binding result [27]: no binding (tested: 10 µg/mL)
binding result [28]: no binding (tested: 10 µg/mL)

From US20230408517A1 (BIO TECHNE, published 2023)
